Laboratory results taken from PMC9482650, “Quantitative fragmentomics allow affinity mapping of interactomes” (Nature Communications, 2022).

Experiments:
Assay in all cases: holdup assay
Design in all cases: key: below the threshold = too weak to quantify, mostly under pKd 3.1 to 4
SYNJ2BP, P57105 = target: T1, SYNJ2BP, P57105
T1 sequence (P57105 8-110, limits assumed, looked up): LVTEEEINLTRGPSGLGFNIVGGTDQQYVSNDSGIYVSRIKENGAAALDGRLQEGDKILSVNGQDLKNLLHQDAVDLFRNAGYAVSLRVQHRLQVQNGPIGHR

GRIP2_4, Q9C0E4 = target: GRIP2_4, Q9C0E4
SCRIB_1, Q14160 = target: SCRIB_1, Q14160
GRID2IP_2, A4D2P6 = target: GRID2IP_2, A4D2P6
FRMPD3, Q5JV73 = target: FRMPD3, Q5JV73
PARD3_3, Q8TEW0 = target: PARD3_3, Q8TEW0
GRIP1_4, Q9Y3R0 = target: T2, GRIP1_4, Q9Y3R0
T2 sequence (Q9Y3R0 467-571, limits assumed, looked up): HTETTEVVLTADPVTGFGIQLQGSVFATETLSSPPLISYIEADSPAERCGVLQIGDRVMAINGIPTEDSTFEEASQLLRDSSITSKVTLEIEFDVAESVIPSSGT

NHERF4_4, Q86UT5 = target: NHERF4_4, Q86UT5
LNX1_2, Q8TBB1 = target: LNX1_2, Q8TBB1
DLG4_2, P78352 = target: DLG4_2, P78352
DLG3_1, Q92796 = target: T3, DLG3_1, Q92796
T3 sequence (Q92796 125-227, limits assumed, looked up): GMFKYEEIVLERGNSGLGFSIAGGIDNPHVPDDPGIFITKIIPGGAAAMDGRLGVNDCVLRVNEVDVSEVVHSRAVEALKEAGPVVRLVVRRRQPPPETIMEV

HTRA3, P83110 = target: T4, HTRA3, P83110
T4 sequence (P83110 354-453, limits assumed, looked up): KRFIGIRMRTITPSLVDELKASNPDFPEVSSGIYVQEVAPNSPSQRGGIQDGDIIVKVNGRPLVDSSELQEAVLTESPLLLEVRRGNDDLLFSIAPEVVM

MAGI3_2, Q5TCQ9 = target: MAGI3_2, Q5TCQ9
LRRC7, Q96NW7 = target: T5, LRRC7, Q96NW7
T5 sequence (Q96NW7 1440-1537, limits assumed, looked up): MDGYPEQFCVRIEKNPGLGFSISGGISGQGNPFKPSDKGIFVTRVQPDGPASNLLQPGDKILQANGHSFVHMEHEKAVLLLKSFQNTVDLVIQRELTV

MAST2, Q6P0Q8 = target: MAST2, Q6P0Q8
PTPN3, P26045 = target: PTPN3, P26045
TJP2_1, Q9UDY2 = target: TJP2_1, Q9UDY2
APBA3_1, O96018 = target: T6, APBA3_1, O96018
T6 sequence (O96018 389-490, limits assumed, looked up): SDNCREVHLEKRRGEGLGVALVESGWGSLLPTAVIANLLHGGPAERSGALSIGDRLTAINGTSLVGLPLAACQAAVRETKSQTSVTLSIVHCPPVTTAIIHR

SNX27, Q96L92 = target: SNX27, Q96L92
GRIP2_6, Q9C0E4 = target: GRIP2_6, Q9C0E4
IL16_1, Q14005 = target: IL16_1, Q14005
IL16_4, Q14005 = target: IL16_4, Q14005
LNX2_3, Q8N448 = target: T7, LNX2_3, Q8N448
T7 sequence (Q8N448 463-564, limits assumed, looked up): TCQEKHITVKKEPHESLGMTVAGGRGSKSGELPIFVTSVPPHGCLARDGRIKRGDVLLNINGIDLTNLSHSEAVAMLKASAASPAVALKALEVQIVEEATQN

PDZD2_2, O15018 = target: T8, PDZD2_2, O15018
T8 sequence (O15018 329-429, limits assumed, looked up): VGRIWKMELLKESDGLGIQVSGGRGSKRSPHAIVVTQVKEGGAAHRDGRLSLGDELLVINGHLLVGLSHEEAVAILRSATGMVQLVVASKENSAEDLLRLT

DFNB31_1, Q9P202 = target: T9, DFNB31_1, Q9P202
T9 sequence (Q9P202 135-233, limits assumed, looked up): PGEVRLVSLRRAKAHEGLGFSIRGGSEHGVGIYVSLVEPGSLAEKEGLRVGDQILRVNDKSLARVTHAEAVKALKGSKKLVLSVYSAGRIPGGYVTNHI

ARHGEF11, O15085 = target: T10, ARHGEF11, O15085
T10 sequence (O15085 42-136, limits assumed, looked up): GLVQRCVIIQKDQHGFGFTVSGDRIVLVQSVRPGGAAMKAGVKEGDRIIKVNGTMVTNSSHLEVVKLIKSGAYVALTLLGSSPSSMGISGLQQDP

MAGI1_1, Q96QZ7 = target: MAGI1_1, Q96QZ7
[1] = plain residues with an end cap or a label only (N-terminal biotin on a linker: ado-ado)
[2] = plain residues with an end cap or a label only (N-terminal biotin on a linker: ahx)
[3] = plain residues with an end cap or a label only (N-terminal biotin on a linker: ttds)

Sequence of NHERF4_4, Q86UT5 (Q86UT5 464-550): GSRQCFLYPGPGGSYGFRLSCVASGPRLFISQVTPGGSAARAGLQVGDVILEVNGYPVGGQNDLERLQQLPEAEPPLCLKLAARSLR
Sequence of IL16_1, Q14005 (Q14005 210-306): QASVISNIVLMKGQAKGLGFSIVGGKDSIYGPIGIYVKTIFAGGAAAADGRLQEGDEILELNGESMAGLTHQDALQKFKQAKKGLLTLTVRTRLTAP
Sequence of GRID2IP_2, A4D2P6 (A4D2P6 272-370): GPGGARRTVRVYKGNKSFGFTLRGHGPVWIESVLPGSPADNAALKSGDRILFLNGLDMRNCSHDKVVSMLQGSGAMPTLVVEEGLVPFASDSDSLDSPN
Sequence of GRIP2_4, Q9C0E4 (Q9C0E4 446-548): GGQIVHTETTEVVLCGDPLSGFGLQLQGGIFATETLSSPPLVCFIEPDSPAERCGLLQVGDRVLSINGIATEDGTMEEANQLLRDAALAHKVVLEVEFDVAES
Sequence of PTPN3, P26045 (P26045 505-587): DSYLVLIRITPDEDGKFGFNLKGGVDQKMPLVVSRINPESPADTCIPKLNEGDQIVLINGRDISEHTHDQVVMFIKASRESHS
Sequence of TJP2_1, Q9UDY2 (Q9UDY2 24-128): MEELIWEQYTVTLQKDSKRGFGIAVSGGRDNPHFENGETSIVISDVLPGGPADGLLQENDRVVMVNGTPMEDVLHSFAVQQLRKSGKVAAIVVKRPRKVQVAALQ
Sequence of FRMPD3, Q5JV73 (Q5JV73 12-100): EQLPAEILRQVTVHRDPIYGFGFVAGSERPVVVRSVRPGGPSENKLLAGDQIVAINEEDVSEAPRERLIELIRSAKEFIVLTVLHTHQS
Sequence of PARD3_3, Q8TEW0 (Q8TEW0 582-685): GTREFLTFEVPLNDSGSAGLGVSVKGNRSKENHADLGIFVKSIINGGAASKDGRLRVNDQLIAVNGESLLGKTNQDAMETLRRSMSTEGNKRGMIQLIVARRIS
Sequence of GRIP2_6, Q9C0E4 (Q9C0E4 648-740): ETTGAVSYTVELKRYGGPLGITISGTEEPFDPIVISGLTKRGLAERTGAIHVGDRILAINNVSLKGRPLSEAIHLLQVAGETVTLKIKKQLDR
Sequence of MAST2, Q6P0Q8 (Q6P0Q8 1099-1202): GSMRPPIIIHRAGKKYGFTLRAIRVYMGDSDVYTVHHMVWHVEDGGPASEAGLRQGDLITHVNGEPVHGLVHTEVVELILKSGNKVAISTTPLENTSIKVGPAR
Sequence of MAGI3_2, Q5TCQ9 (Q5TCQ9 398-503): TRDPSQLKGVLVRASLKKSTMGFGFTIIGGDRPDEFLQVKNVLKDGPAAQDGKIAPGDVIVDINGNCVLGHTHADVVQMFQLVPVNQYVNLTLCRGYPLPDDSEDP
Sequence of MAGI1_1, Q96QZ7 (Q96QZ7 1-106): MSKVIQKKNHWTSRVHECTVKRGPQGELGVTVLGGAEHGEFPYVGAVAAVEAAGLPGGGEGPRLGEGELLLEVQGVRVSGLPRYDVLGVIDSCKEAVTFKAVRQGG
Sequence of DLG4_2, P78352 (P78352 155-259): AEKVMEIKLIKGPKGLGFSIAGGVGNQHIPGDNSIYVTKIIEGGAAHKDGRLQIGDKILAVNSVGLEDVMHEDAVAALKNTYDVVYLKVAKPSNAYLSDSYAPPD
Sequence of IL16_4, Q14005 (Q14005 1229-1329): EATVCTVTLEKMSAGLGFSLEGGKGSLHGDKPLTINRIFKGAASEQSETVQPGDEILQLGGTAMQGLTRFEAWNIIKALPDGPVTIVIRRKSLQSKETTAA
Sequence of SCRIB_1, Q14160 (Q14160 718-814): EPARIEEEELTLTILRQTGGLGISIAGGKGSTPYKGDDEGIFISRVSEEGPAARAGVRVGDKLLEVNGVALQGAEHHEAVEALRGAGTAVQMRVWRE
Sequence of LNX1_2, Q8TBB1 (Q8TBB1 371-470): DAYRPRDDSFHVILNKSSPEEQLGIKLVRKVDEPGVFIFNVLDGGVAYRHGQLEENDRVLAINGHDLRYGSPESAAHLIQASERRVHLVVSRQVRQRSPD

RGGFGRQTQI [NCBP2L, A6PVI3]
pKd (SYNJ2BP, P57105; [1]): 4.18
pKd (GRIP2_4, Q9C0E4; [1]): below the threshold
pKd (SCRIB_1, Q14160; [1]): 3.61
pKd (GRID2IP_2, A4D2P6; [1]): 4.05
pKd (FRMPD3, Q5JV73; [1]): below the threshold
pKd (PARD3_3, Q8TEW0; [1]): below the threshold
pKd (GRIP1_4, Q9Y3R0; [1]): below the threshold
pKd (NHERF4_4, Q86UT5; [1]): below the threshold
pKd (LNX1_2, Q8TBB1; [1]): below the threshold
pKd (DLG4_2, P78352; [1]): 4.64
pKd (DLG3_1, Q92796; [1]): 3.58
pKd (HTRA3, P83110; [1]): below the threshold
pKd (MAGI3_2, Q5TCQ9; [1]): 4.79
pKd (LRRC7, Q96NW7; [1]): below the threshold
pKd (MAST2, Q6P0Q8; [1]): 5.6
pKd (PTPN3, P26045; [1]): 4.49
pKd (TJP2_1, Q9UDY2; [1]): 3.88
pKd (APBA3_1, O96018; [1]): below the threshold
pKd (SNX27, Q96L92; [1]): below the threshold
pKd (GRIP2_6, Q9C0E4; [1]): below the threshold
pKd (IL16_1, Q14005; [1]): below the threshold
pKd (IL16_4, Q14005; [1]): below the threshold
pKd (LNX2_3, Q8N448; [1]): below the threshold
pKd (PDZD2_2, O15018; [1]): 3.76
pKd (DFNB31_1, Q9P202; [1]): 4.78
pKd (ARHGEF11, O15085; [1]): below the threshold
pKd (MAGI1_1, Q96QZ7; [1]): below the threshold

HSGSYLVTSV [APC, P25054]
pKd (SYNJ2BP, P57105; [2]): 4.81
pKd (GRIP2_4, Q9C0E4; [2]): below the threshold
pKd (SCRIB_1, Q14160; [2]): 5.04
pKd (GRID2IP_2, A4D2P6; [2]): 4.41
pKd (FRMPD3, Q5JV73; [2]): below the threshold
pKd (PARD3_3, Q8TEW0; [2]): below the threshold
pKd (GRIP1_4, Q9Y3R0; [2]): below the threshold
pKd (NHERF4_4, Q86UT5; [2]): below the threshold
pKd (LNX1_2, Q8TBB1; [2]): 3.79
pKd (DLG4_2, P78352; [2]): 4.98
pKd (DLG3_1, Q92796; [2]): 3.82
pKd (HTRA3, P83110; [2]): below the threshold
pKd (MAGI3_2, Q5TCQ9; [2]): 4.53
pKd (LRRC7, Q96NW7; [2]): 4.14
pKd (MAST2, Q6P0Q8; [2]): 5.11
pKd (PTPN3, P26045; [2]): 4.64
pKd (TJP2_1, Q9UDY2; [2]): below the threshold
pKd (APBA3_1, O96018; [2]): below the threshold
pKd (SNX27, Q96L92; [2]): 5.52
pKd (GRIP2_6, Q9C0E4; [2]): below the threshold
pKd (IL16_1, Q14005; [2]): 3.58
pKd (IL16_4, Q14005; [2]): below the threshold
pKd (LNX2_3, Q8N448; [2]): below the threshold
pKd (PDZD2_2, O15018; [2]): 4.43
pKd (DFNB31_1, Q9P202; [2]): 3.93
pKd (ARHGEF11, O15085; [2]): 4.59
pKd (MAGI1_1, Q96QZ7; [2]): below the threshold

QKNKDKEYYV [NRXN3_rs746444206, Q9Y4C0]
pKd (SYNJ2BP, P57105; [1]): below the threshold
pKd (GRIP2_4, Q9C0E4; [1]): below the threshold
pKd (SCRIB_1, Q14160; [1]): below the threshold
pKd (GRID2IP_2, A4D2P6; [1]): below the threshold
pKd (FRMPD3, Q5JV73; [1]): 3.9
pKd (PARD3_3, Q8TEW0; [1]): 4.48
pKd (GRIP1_4, Q9Y3R0; [1]): below the threshold
pKd (NHERF4_4, Q86UT5; [1]): below the threshold
pKd (LNX1_2, Q8TBB1; [1]): 4
pKd (DLG4_2, P78352; [1]): 3.56
pKd (DLG3_1, Q92796; [1]): below the threshold
pKd (HTRA3, P83110; [1]): 4.64
pKd (MAGI3_2, Q5TCQ9; [1]): 4.63
pKd (LRRC7, Q96NW7; [1]): below the threshold
pKd (MAST2, Q6P0Q8; [1]): 3.97
pKd (PTPN3, P26045; [1]): 4.28
pKd (TJP2_1, Q9UDY2; [1]): below the threshold
pKd (APBA3_1, O96018; [1]): below the threshold
pKd (SNX27, Q96L92; [1]): below the threshold
pKd (GRIP2_6, Q9C0E4; [1]): 4.02
pKd (IL16_1, Q14005; [1]): below the threshold
pKd (IL16_4, Q14005; [1]): below the threshold
pKd (LNX2_3, Q8N448; [1]): below the threshold
pKd (PDZD2_2, O15018; [1]): 4.5
pKd (DFNB31_1, Q9P202; [1]): below the threshold
pKd (ARHGEF11, O15085; [1]): 3.95
pKd (MAGI1_1, Q96QZ7; [1]): below the threshold

DPLTPSRSQL [DGKK, Q5KSL6]
pKd (SYNJ2BP, P57105; [3]): below the threshold
pKd (GRIP2_4, Q9C0E4; [3]): below the threshold
pKd (SCRIB_1, Q14160; [3]): below the threshold
pKd (GRID2IP_2, A4D2P6; [3]): 4.1
pKd (FRMPD3, Q5JV73; [3]): below the threshold
pKd (PARD3_3, Q8TEW0; [3]): below the threshold
pKd (GRIP1_4, Q9Y3R0; [3]): below the threshold
pKd (NHERF4_4, Q86UT5; [3]): below the threshold
pKd (LNX1_2, Q8TBB1; [3]): below the threshold
pKd (DLG4_2, P78352; [3]): below the threshold
pKd (DLG3_1, Q92796; [3]): below the threshold
pKd (HTRA3, P83110; [3]): below the threshold
pKd (MAGI3_2, Q5TCQ9; [3]): 3.55
pKd (LRRC7, Q96NW7; [3]): below the threshold
pKd (MAST2, Q6P0Q8; [3]): 4.36
pKd (PTPN3, P26045; [3]): below the threshold
pKd (TJP2_1, Q9UDY2; [3]): below the threshold
pKd (APBA3_1, O96018; [3]): below the threshold
pKd (SNX27, Q96L92; [3]): below the threshold
pKd (GRIP2_6, Q9C0E4; [3]): below the threshold
pKd (IL16_1, Q14005; [3]): below the threshold
pKd (IL16_4, Q14005; [3]): below the threshold
pKd (LNX2_3, Q8N448; [3]): below the threshold
pKd (PDZD2_2, O15018; [3]): below the threshold
pKd (DFNB31_1, Q9P202; [3]): below the threshold
pKd (ARHGEF11, O15085; [3]): below the threshold
pKd (MAGI1_1, Q96QZ7; [3]): below the threshold
